Measurements published in US20050042631A1 (US Dept. of Health and Human Services, published 2005).

Target: T1, GST-K-p52 (human, UniProt O75475 1-325, 32P-labeled by HMK where used as Farwestern probe)
T1 construct: The Nru I-EcoR V fragment of p52 cDNA was put in pGEX-2T(K); also called GST-p52; p52 probe; not shown: glutathione-S-transferase from the pGEX-2T(K) vector; heart muscle kinase (K) site and vector linker
Test: Farwestern blot with 32P-labeled GST-K-p52

T1 sequence (O75475 other isoform, or with tags, fused parts or gaps): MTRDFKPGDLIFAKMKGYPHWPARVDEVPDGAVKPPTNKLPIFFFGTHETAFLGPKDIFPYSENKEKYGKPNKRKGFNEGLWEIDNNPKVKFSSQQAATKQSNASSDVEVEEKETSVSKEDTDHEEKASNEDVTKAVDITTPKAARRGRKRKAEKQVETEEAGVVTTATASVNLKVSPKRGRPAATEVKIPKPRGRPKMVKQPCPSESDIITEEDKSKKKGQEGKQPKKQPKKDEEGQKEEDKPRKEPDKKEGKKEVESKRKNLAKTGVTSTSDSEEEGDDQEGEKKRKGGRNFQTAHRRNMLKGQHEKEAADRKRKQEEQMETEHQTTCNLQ

B1: GST-RS (GST-fused RS domain of ASF/SF2) (other, UniProt Q07955 198-248, looked up)
chain: RSPSYGRSRSRSRSRSRSRSRSNSRSRSYSPRRSRGSPRYSPRHSRSRSRT
notes: domain: RS domain; not shown: glutathione-S-transferase
binding result: no binding
